This assay has as its target PDZ domain of mouse SNX27 (mouse, UniProt Q3UHD6 41-134). The experiment in a line: ITC.

For the molecule QEEWETVM [PTHR_(586-593) cargo peptide], the affinity, expressed as Kd, was 700 nM.

The record behind these values is doi:10.1101/2020.12.03.410779 (bioRxiv, 2020).
